Data published in patent US20220235344A1, “TRYPSIN VARIANTS WITH IMPROVED ENZYMATIC PROPERTIES” (BIOPHARMA TRANSLATIONSINSTITUT DESSAU FORSCHUNGS GMBH, priority 2018, published 2022).
Where “and” joins values, the source holds several entries; their conditions need not be identical. Equal values may be shown once.

T1: Bz-AAYRAHAG-OH (acyl donor) / H-RAHAK(DNP)-OH (acyl acceptor) (Rattus norvegicus, UniProt P00763, D194K/K66E/Y45H/Y65H)
T1 construct: monomeric enzyme species (about 24 kDa); made in house; host or cells: Pichia pastoris X-33 (pPICZalphaA, secreted)
T1 sequence (P00763 24-246 Y45H/Y65H/K66E/D194K): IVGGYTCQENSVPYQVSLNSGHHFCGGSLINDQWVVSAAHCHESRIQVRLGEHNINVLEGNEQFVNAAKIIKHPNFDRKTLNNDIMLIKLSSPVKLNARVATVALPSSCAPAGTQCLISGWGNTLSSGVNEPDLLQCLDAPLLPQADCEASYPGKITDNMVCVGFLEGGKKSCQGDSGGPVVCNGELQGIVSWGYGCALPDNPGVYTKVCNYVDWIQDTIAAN


Legend:
Type in all cases: biochemical
[1] = target: T1, Bz-AAYRAHAG-OH (acyl donor) / H-RAHAK(DNP)-OH (acyl acceptor); assay: Zinc dependence of the transamidation reaction, Trypsiligase II
Method: (§1) Model transamidation reactions were performed in a solution containing 15 to 250 μM acyl donor, 2 eq. of the corresponding acyl acceptor, varying concentrations of trypsin variant, 100 mM HEPES/NaOH pH 7.8, ±0.1 mM ZnC12, 100 mM NaCl, 10 mM CaCl2) at 30° C. Acyl donor and acyl acceptor had the same amino acids in P1′-P3′ position, e.g. Bz-[…]+H-RAHAK-OH or Bz-[…]+H-RKKAK-OH. Variations are indicated. The acyl acceptor could be equipped with a 2,4-Dinitrophenyl group (DNP) at the side chain of the terminal lysine, e.g. H-RAHAK(DNP)-OH or H-RKKAK(DNP)-OH. The reactions were started by the addition of enzyme. To record the time course of product formation and/or for kinetic evaluation of the reaction several aliquots of the reaction mixture were quenched with 25% (v/v) acetic acid at distinct time points within up to 4 hours. The composition of the reaction mixture was analyzed by UPCL with method I or II, depending on the absence (method 1) or presence (method II) of a 2,4-dinitrophenyl group within the acyl acceptor (see example 1). Measurements were performed as duplicates and errors were less than 5%.

[2] = tested on: Bz PGGXaaXaaXaaHAG-OH / H-XaaXaaXaaAK(DNP)-OH (recognition sequences YRRH, YMKH, RMKH); assay: Time course of transamidation by A2C8_H39Y/H59Y/E60K/K189D and wild-type trypsin (FIG. 5); conditions: comparison value for A2C8
Method: FIG. 5: Time course of the product formation for a transamidation reaction catalyzed by the variant A2C8_H39Y/H59Y/E60K/K189D as well as the wild-type Trypsin in correlation to various peptide substrates. Reaction conditions: 100 μM acyl donor (Bz PGGXaaXaaXaaHAG-OH), 200 μM acyl acceptor (H-XaaXaaXaaAK(DNP)-OH), 10 μM trypsin variant A2C8_H39Y/H59Y/E60K/K189D or 2.5 nM anionic rat trypsin II, 100 mM HEPES/NaOH pH 7.8, 0.1 mM ZnCl2, 100 mM NaCl, 10 mM CaCl2, T=30° C. UPLC analysis: Waters Acquity Ultra Performance LC, C18-column, gradient 5-60% acetonitrile, 5 min, detection at 360 nm.
The three substrates with the highest apparent turnover rate for the aminolysis reaction were then used for investigating the synthesis behavior of variant A2C8_H39Y/H59Y/E60K/K189D. In FIG. 5 the time course of product formation for a transamidation reaction catalyzed by variant A2C8_H39Y/H59Y/E60K/K189D with various peptide substrates is illustrated.

[3] = tested on: Bz-PGGXaaXaaXaaXaaAG-OH (acyl donor) / H-XaaXaaXaaAK(DNP)-OH (acyl acceptor); assay: Substrate specificity of variants (FIG. 2, FIG. 4)
Method: FIG. 2: Substrate specificity data of chosen variants identified during phage-display selection and screening out of Trypsiligase II-library. 100 μM acyl donor (Bz-PGGXaaXaaXaaXaaAG-OH); 200 μM acyl acceptor (H-XaaXaaXaaAK(DNP)-OH); 1-5 μM enzyme variant; 100 mM HEPES pH7.8, 100 mM NaCl, 10 mM CaCl2, 0.1 mM ZnCl2, T=30° C. UPLC analysis: Waters Acquity Ultra Performance LC, C18-column, gradient 5-60% acetonitrile, 5 min, detection at 360 nm; (k_(cat,AL)^app): apparent turnover rate for the aminolysis reaction. Amino acid variation of acyl donor/acyl acceptor pairs at Xaa-positions are indicated at the y-axis, e.g. YRAH relates to the acyl donor Bz-[…]-OH with the corresponding acyl acceptor H-RAHAK(DNP)-OH.
FIG. 4: Substrate specificity data of chosen variants identified during phage-display selection and screening out of Trypsiligase II-library. […]
Model transamidation reactions were performed in a solution containing 15 to 250 μM acyl donor, 2 eq. of the corresponding acyl acceptor, varying concentrations of trypsin variant, 100 mM HEPES/NaOH pH 7.8, ±0.1 mM ZnC12, 100 mM NaCl, 10 mM CaCl2) at 30° C. […] The composition of the reaction mixture was analyzed by UPCL with method I or II, depending on the absence (method 1) or presence (method II) of a 2,4-dinitrophenyl group within the acyl acceptor (see example 1). […]

[4] = tested on: R1-YRKH-R2 (Bz-PGGYRKHAG-OH) / H-RKHAK(DNP)-OH; assay: Zinc dependence of the transamidation reaction, A2C8 and K7F11, YRKH; conditions: 100 μM acyl donor, 200 μM acyl acceptor
Method: as §1

[5] = R1-YRAH-R2, 250 μM acyl donor, 500 μM acyl acceptor, absence of zinc ions

Row | Molecule | dependence for zinc ions [1] | reduction of the product yield in the absence of zinc ions (factor) [1] | kcat, AL^app + Zn^2+ (mkat/mol) ([1]; R1-YRAH-R2, 250 μM acyl donor, 500 μM H-RAHAK(DNP)-OH, 2 μM trypsin variant, 0.1 mM ZnCl2) | product yield + Zn^2+ (%) ([1]; R1-YRAH-R2, 250 μM acyl donor, 500 μM acyl acceptor, 0.1 mM ZnCl2) | kcat, AL^app − Zn^2+ (mkat/mol) [1, 5] [mkat/mol] | product yield − Zn^2+ (%) [1, 5] | drop of apparent turnover rate for the aminolysis reaction in the absence of zinc ions (factor) ([1]; YRAH) | product yield at comparable conditions [2] [%] | acceptance of LRKH as acyl donor [3] | substrate sequence with highest activity [3] | kcat, AL^app + Zn^2+ (mkat/mol) ([4]; 0.1 mM ZnCl2) | product yield + Zn^2+ (%) ([4]; 0.1 mM ZnCl2) | kcat, AL^app − Zn^2+ (mkat/mol) ([4]; absence of zinc ions) | product yield − Zn^2+ (%) ([4]; absence of zinc ions)
1 | Trypsiligase II (trypsin variant Y39H/Y59H/K60E/D189K) (protein) IVGGYTCQENSVPYQVSLNSGHHFCGGSLINDQWVVSAAHCHESRIQVRLGEHNINVLEGNEQFVNAAKIIKHPNFDRKTLNNDIMLIKLSSPVKLNARVATVALPSSCAPAGTQCLISGWGNTLSSGVNEPDLLQCLDAPLLPQADCEASYPGKITDNMVCVGFLEGGKKSCQGDSGGPVVCNGELQGIVSWGYGCALPDNPGVYTKVCNYVDWIQDTIAAN | strong dependence for zinc ions | 4 | 11.19 | 18% and 18.1% | 0.89 | 4% and 4.2% | 12 |  |  |  |  |  |  | 
2 | A2C8: Trypsiligase II + H40F, A55A, R96E, K97D, L99F, N143E, E151Y, S190V, Q192A, S214G, G219Q, A221T (protein) IVGGYTCQENSVPYQVSLNSGHFFCGGSLINDQWVVSAAHCHESRIQVRLGEHNINVLEGNEQFVNAAKIIKHPNFDEDTFNNDIMLIKLSSPVKLNARVATVALPSSCAPAGTQCLISGWGETLSSGVNYPDLLQCLDAPLLPQADCEASYPGKITDNMVCVGFLEGGKKVCAGDSGGPVVCNGELQGIVGWGYQCTLPDNPGVYTKVCNYVDWIQDTIAAN |  |  |  |  |  |  |  | 59 | accepts LRKH as acyl donor | highest activity for YRKK substrate sequence | 8.42 | 55.0 | 16.92 | 57.6
